Assay results: the DeepSol protein solubility set

Assay: soluble on expression in E. coli; label from the status in PepcDB or PDB records

Row | Sequence | soluble on expression in E. coli
1 | MSDLMQKENIVVMLTKKGFLKRLSQNEYKLQGTGGKGLSSFDLNDGDEIVIALCVNTHDYLFMISNEGKLYLINAYEIKDSSRASKGQNISELINLGDQEEILTIKNSKDLTDDAYLLLTTASGKIARFESTDFKAVKSRGVIVIKLNDKDFVTSAEIVFKDEKVICLSKKGSAFIFNSRDVRLTNRGTQGVCGMKLKEGDLFVKVLSVKENPYLLIVSENGYGKRLNMSKISELKRGATGYTSYKKSDKKAGSVVDAIAVSEDDEILLVSKRSKALRTVAGKVSEQGKDARGIQVLFLDNDSLVSVSKFIK | soluble
2 | MSNQRDYTLIIDKSGSMSIIEPKFQKSRWELVQESTLALARKCDQLDANGITVYTFSGKFRRYDNVNASKVEQIFQENEPVGGTNLTAVLQDALNNFLQRKKSNQAPTGETILVITDGEPNDRRSVFEIIIQASKCLDADEELAISFMQIGNDPSATKFLQALDDQLMEVGAKFDIVDTVTFDEMEDLTLTEVLLNAIEDLEHHHHHH | soluble
3 | MIEQFNFDIRLIFAILNGKVSAAINRKLYRNFRQNGLEISPEQWTVLIFLWEKDGVTQQELCNATFKDKPSMTRLIDNMERQHLVVRISDKKDRRTNLIHLTKDGKELEEKARIIAGQTLKEALHGITLEELSIGQEVLKKVFYNTKD | not soluble
4 | MGSDKIHHHHHHMAHENVIEMRDITKVFGGFVANDKINLHLRKGEIHALLGENGAGKSTLMNMLAGLLEPTSGEIAVNGQVVNLDSPSKAASLGIGMVHQHFMLVEAFTVAENIILGSELTKNGVLDIAGASKEIKALSERYGLAVDPSAKVADISVGAQQRVEILKTLYRGADILIFDEPTAVLTPSEIDELMAIMKNLVKEGKSIILITHKLDEIRAVSDRVTVIRRGKSIETVEIAGATNADLAEMMVGRSVSFKTEKQASKPKEVVLSIKDLVVNENRGVPAVKNLSLDVRAGEIVGIAGIDGNGQSELIQAITGLRKVESGSIELKGDSIVGLHPRQITELSVGHVPEDRHRDGLILEMMISENIALQTYYKEPHSKNGILNYSNITSYAKKLMEEFDVRAASELVPAAALSGGNQQKAIIAREIDRDPDLLIVSQPTRGLDVGAIEYIHKRLIEERDNGKAVLVVSFELDEILNVSDRIAVIHDGKIQGIVSPETTNKQELGVLMAGGNLGKEKSDV | not soluble
5 | MGSDKIHHHHHHMSRRLPPLNAVKAFEAAARHLSFTRAAEELFVTQAAVSHQIKALEDFLGLKLFRRKNRSLLLTEEGQSYFLDIKDIFTQLSDATDRLLARSAIGSLTVSMSPSFAIQWLVPRLAKFSEKNPDIDVRIKAVDSEEGSLTDDVDVAIYYGQGSWPGLRADKLRNEVLIPVCSPMLLNGHKPLETPADLKHHTLLHDMSRHDWQAWFRQCGVTDVNVNQGPIFSHSSLVLQAAAHGQGVALGYSVLARPDIKAGRLVVPFQEVLVSKDAYYLVCQQNHAELGKIVAFREWMLDMFAEESRSELLPA | not soluble
6 | MGSDKIHHHHHHVFAGFDYGSANCAMAVCEGDSVRLLPIGDSGGQYLMSVVYALDVSFITEAVCQRLPDNQARALVQKRGAELARARRMRQELDLTATDDTVFIGEAALKAYLDTPEEGFFVRSPKSFLGATGLRPEQVALFEDIVTLMMLEVKGRADALLQNPVTHAVIGRPVNFQGIGGEEANIQAQSILQIAAMRAGFTQVSFLFEPLAAAFDFESSLEADKRVLVVDVGGGTTDCSLVTMGPNKRSQTERSEDCLGHSGQRIGGNDLDIALAMECLMPHYGLGDMLSTGKPMPRQMFWQAVAINDVGAQRDFFSLSYATAIKELRKDAINPDALDRLARLRRDQQHCQLVKLAELAKIDLSGEELTQVEHPDGAHTSVAADAFGLAIAPLVQRIGELMRAAVGDESSPDLIYVTGGSSRCPQVASSIAAVYPGVEVVQGDSFGSVTAGLARRAALEFA | not soluble
7 | MAHHHHHHMGGPREVTLKILDAIEAELKMSFKSIVEDRSLPYVSSSDTILVFGRSSLVEYILLSRSRDPQCKPKRVIVIDSAPLFEGRQLAEKLSSAGIDVTYGLITACCTLMPKCTRVFMGASAVLQNGDMFGRCGMALVAACAKLFRKPVLCFSESYKFVPEVWVGNLAQNTKLADMRPAAEVHGSDTGTHSPLVYPTPPTLSPPQLRASGGWGTPARGADFLTRSGGGGAVPFSSSASGYLYDLTPASYIDMIICEMGCLHTSAIVAAIKDREGRDTSQLLNLVRG | not soluble
8 | MHQRCNTRGGQDMGFDSRAAKKLKAMFKQQCRDAGAVCWLCGQPINYDAPPNSRDSFEPDHFYPQATHPELAEDPENLRPSHCSCNRSRKDGVPAPSLGSLSEQW | not soluble
9 | GPLQVSNARLLFPISMPEDEGVVRLVVNNTDESDLQVAVVSLPSFVSLDDRAFRLQAREPRELNLSLAVPRNMPPGMKDEPLVLEVTSPETGKKAVDSVMVSLPLVDNFPALTAAQTGVMELSTYLDMGQLDGETTKAAIEIRNVGAGPLRLHSVTTRNPALTAVPDRTEIKPGGSTLLRIAVDPQVMKAEGWQSIAADISIICNDPQAPLRRIKVKAEL | soluble
10 | MDPSAAFRSFPTQERGILLADTYKPLSLYAADVQVRLSGSAAQVILSLEYVNETNKLVRAIAAYPAPSSYQLQCATLQGPAREISARSYVRSRPLRSVEAGSALCAEPLVDTAVSTVATQSVPWDVSPGESVLMKAVYHAPISVTHRTGEIVFTLPASLIPAVQRPPDVQRGYMKFLDARSQLRHLAQQGGSLRVCVDAQLLVPLRGVVTLEKGPEVVPEMGVTGTSVNVHYVGDTHFQMTYHDDLPKTAYMQVPLCVRAPVAETSEPLRLHTVAASLPPTSAPSDHPTAEVAAAMVVSIAPFLANCPINAEIMFVVDVHSAALGARAAESVMSAIRSLNGTASLVNVILCRDAHRGGAVSLLPDESVQSSAVPQESMLAFMKEEGVQTSSSKGPATLSPHLPSLLHDITTGRGITTSIPAGYVRNVIVLSDGGSQPVDADAVAMVCQVTNAGRACRVHAVALAATADHAVLEALAEACGGCFASAAASGSSEAGGSAVDEAVQAAVSAAAVPCLVDIRTKWDVTGGDIAVASSVQAAAAAPSPLRMATDADGGSIACVPHGTQRLLYGLLASANSQLAVRVFGRVGEMRLEYTASSAIQPPPQSDAADTAAAADATDEESGRAPPMLMTAAAAARIAYLTHILHTTSEDEALEVIALSKRYMLPSPYTTLTDGNSGPGGEHKLGGVVHLPSMQAAAHVELAIRARRVELQAAAALRALRPA | soluble
11 | MMAKDFYSAIEDRRSIYAISKEQVVSDEKIQEVIYHAVKHTPSAFNSQSARVVVLLGEQHDKLWDITKETLRKIVPENNFAPTEEKMNAFKSGYGTVLYFEDSEVVESLQANFALYKDNFPTWSQQSSGMLQFAIWTALEIEGFGATLQHYNPLIDEEVRKEWDVPANWKLIAQMPFGKPVVQAGEKEFQPLENRVKIYKLEHHHHHH | soluble
12 | TLTDTMNDLAVRMAESFQAEEVGFFHIDHFENLTLLPGSTAFFKEAKPSDFYNELKEKLYEGEKGVFIGNGQSVFGKAGYGSLMAAPMIQNDRLLGFAVLLKQELYAFTFEMYKLFQALIHHATLAVTNSMLRDRLEHLVKTDQL | not soluble
13 | MGSDKIHHHHHHMEPGSQVTDRLRFGCTGCGKCCTGHHVPLTLAEARRWAEDAGQVVVLIEAFVVDGPGMPLEQRDHVLRRSHPVHCGEGEARVSVTFAAFNPGRCRNLDANDLCTIYEQRPLVCRIYPVEINPHIPLRPDSKDCPPEAWQQGPELIHGTQLVDVELQALVQASRQADRDDIAAKVAVCQALGMTTSALKGNGFTAYLPDMGAFAAALAQVQGNEGAQWTLHVQDEALTASLQALGLRTTHETPVYYAFIGF | not soluble
14 | MTHVCSVILIRRSFDIYHEQQKISLHNESILLLEKNLADDFAFCSPDTRRLDIDELTVCHYLQNIRQLPRNLGLHSKDRLLINQSPPMPLVTAIFDSFNESGVNSPILSNMLYLSCLSMFSHKKELIPLLFNSISTVSGKVERLISFDIAKRWYLRDIAERMYTSESLIKKKLQDENTCFSKILLASRMSMARRLLELRQIPLHTIAEKCGYSSTSYFINTFRQYYGVTPHQFAQHSPGTFS | not soluble
15 | MAIIFNPNKKIFTLQTAHTTYQMQVDRLGYLLHLYYGAKSTCDMDYVLTYADRGFSGNPYAAGMNRTYSLDTLPQEYPTLGTGDFRNIALDIKNEQGTESVELLYKSYEIRDGKYALKGLPAVWASDDEAQTLEIVLGDDIAGVEVHLLYGVLEACDVITRSVLIKNTGSGNITIEKAHAACLDMVYGDYDVIRFYGKHAMERNLERTHLGHGTLSFGSRRGTSSHQYNPAVILAQRDTTENAGDCYGMLFVYSGNFSCEAEKDQINQTRLLMGLSDELFSYPLAAGETFTVPEVIMSYSADGFSQLSHQYHTCISEHVCRSRFAHEVRPVLINSWEAAYFDFTGDTIVDLAKEAASLGIDMVVMDDGWFGKRDDDNSSLGDWFVNEKKLGGTLSELIDRVHAQGVKFGIWIEPEMVNEDSNLYREHPDWAIQIPGKLPVRSRNQLILDFSRKEVRDNIFNQICAVFDQGKIDYVKWDMNRSMADVYAGNLAYDYVLGVYDFMERLVTRYPDILLEGCSGGGGRFDAGMLYYSPQIWCSDNTDAINRTRIQYGTSFFYPVSSMGAHVSAVPNHQTGRVTSLKTRGITAMAGTFGYELNPALLSDEEKEEIREQIKTFKKYEMLINEGTYWRLTSPFEDEVAAWMSVSRTKDRALVSVVRLYAEANAAACYVKLKGLESDAVYIEENTGRQYTGAALMNAGIPLPFAVKEYEAYQFSFIRLDEAKKLYDEIKKVCGNLKLNEADTADSASDNRLEHHHHHH | soluble
16 | GEVRNIVDKTASFVARNGPEFEARIRQNEINNPKFNFLNPNDPYHAYYRHKVSEFKEGKAQEPS | soluble
17 | MGSDKIHHHHHHMFSQHSFDFLNSLAVNNDREWFKTNQQQYEDQVRTPALQFIEAMQGPILGLSPRFTAVAKKVGGSLMRPQRDSRFSKDKTPYKTNVGIQFKHFQAKDVHAPGFYVHIANDECFIAAGIWHPESKDLNAIRHCIDENPNAYQKALTQLSQAGFELTGDSLIRPPRGFDKHHPMIDELRRKDFIAIKPISSEQVCQADFIEFCTQEYQHTRALMAYLCFALDLDF | not soluble
18 | MAQRVQLTATVSENQLGQRLDQALAEMFPDYSRSRIKEWILDQRVLVNGKVCDKPKEKVLGGEQVAINAEIEEEARFEPQDIPLDIVYEDEDIIIINKPRDLVVHPGAGNPDGTVLNALLHYYPPIADVPRAGIVHRLDKDTTGLMVVAKTVPAQTRLVESLQRREITREYEAVAIGHMTAGGTVDEPISRHPTKRTHMAVHPMGKPAVTHYRIMEHFRVHTRLRLRLETGRTHQIRVHMAHITHPLVGDPVYGGRPRPPKGASEAFISTLRKFDRQALHATMLRLYHPISGIEMEWHAPIPQDMVELIEVMRADFEEHKDEVDWL | soluble
19 | MLTRVPVLILAVIVMLALCQEPEKPEKRPALLSRYGRAVLPRYGKRSGNLMESSQNSLTEESSDVVCQLIDGKYICLPVDAGFLGEVNGSIKQNSKTKCPAFFKNVSFSLFFRAFYLTVPACTSKKNVLLTSTTSTINHQKLEPATTLSPIRQRRRCLFQIDFAYLTVCPSKCQEGTDTGKVADYLLSLGCSDMDVIEREMKRVCCPE | not soluble
20 | QLGMKGYADTIDRQRMQTQAQFVLEKMSREIRHAVPNSFHVPTGSTNCLEFMPIEYSGFYTLTNNNLEFLLGNDSTLNPIPADRWMVINPSRYEDLQSASPQSLAVGNLAKTGD | not soluble
